According to US20130225506A1 (POLYPHOR, published 2013):
Square brackets hold non-standard residues; d marks the D form. Primed or numbered codes have the meaning given here. dPro(cis-4-NH2) = N[C@H]1CN[C@@H](C(=O)O)C1; dPro(4S-NH2) = N[C@@H]1CN[C@@H](C(=O)O)C1; 1Nal = N[C@@H](Cc1cccc2ccccc12)C(=O)O; 2Nal = N[C@@H](Cc1ccc2ccccc2c1)C(=O)O; Pro(3S-OH) = O=C(O)[C@H]1NCC[C@@H]1O; dCit = NC(=O)NCCC[C@@H](N)C(=O)O; Tic = O=C(O)[C@@H]1Cc2ccccc2CN1; Agb = N=C(N)NCC[C@H](N)C(=O)O; Agp = N=C(N)NC[C@H](N)C(=O)O; dPip′ = not defined here

B1: cyclo(-Ile-^DArg-Arg-2Nal-^DPro-Thr-) (peptide)
peptide: cyclo(I[dR]R[2Nal][dP]T)
SMILES: CC[C@H](C)[C@@H]1NC(=O)[C@H]([C@@H](C)O)NC(=O)[C@H]2CCCN2C(=O)[C@H](Cc2ccc3ccccc3c2)NC(=O)[C@H](CCCNC(=N)N)NC(=O)[C@@H](CCCNC(=N)N)NC1=O
B2: cyclo(-Ile-^DArg-Arg-Tyr-^DPro-Thr-) (peptide)
peptide: cyclo(I[dR]RY[dP]T)
SMILES: CC[C@H](C)[C@@H]1NC(=O)[C@H]([C@@H](C)O)NC(=O)[C@H]2CCCN2C(=O)[C@H](Cc2ccc(O)cc2)NC(=O)[C@H](CCCNC(=N)N)NC(=O)[C@@H](CCCNC(=N)N)NC1=O
B3: cyclo(-Trp-^DPhe-Trp-Arg-^DPro((4R)NH2)-Tic-) (peptide)
peptide: cyclo(W[dF]WR[dPro(cis-4-NH2)][Tic])
SMILES: N=C(N)NCCC[C@@H]1NC(=O)[C@H](Cc2c[nH]c3ccccc23)NC(=O)[C@@H](Cc2ccccc2)NC(=O)[C@H](Cc2c[nH]c3ccccc23)NC(=O)[C@@H]2Cc3ccccc3CN2C(=O)[C@H]2C[C@@H](N)CN2C1=O
B4: cyclo(-Ile-^DArg-Agb-Trp-^DPro-Thr-) (peptide)
peptide: cyclo(I[dR][Agb]W[dP]T)
SMILES: CC[C@H](C)[C@@H]1NC(=O)[C@H]([C@@H](C)O)NC(=O)[C@H]2CCCN2C(=O)[C@H](Cc2c[nH]c3ccccc23)NC(=O)[C@H](CCNC(=N)N)NC(=O)[C@@H](CCCNC(=N)N)NC1=O
B5: cyclo(-Trp-^DArg-Arg-Trp-^DPro-Thr-) (peptide)
peptide: cyclo(W[dR]RW[dP]T)
SMILES: C[C@@H](O)[C@@H]1NC(=O)[C@H]2CCCN2C(=O)[C@H](Cc2c[nH]c3ccccc23)NC(=O)[C@H](CCCNC(=N)N)NC(=O)[C@@H](CCCNC(=N)N)NC(=O)[C@H](Cc2c[nH]c3ccccc23)NC1=O
B6: cyclo(-Ile-^DArg-Arg-Trp-^DPro-Thr-) (peptide)
peptide: cyclo(I[dR]RW[dP]T)
SMILES: CC[C@H](C)[C@@H]1NC(=O)[C@H]([C@@H](C)O)NC(=O)[C@H]2CCCN2C(=O)[C@H](Cc2c[nH]c3ccccc23)NC(=O)[C@H](CCCNC(=N)N)NC(=O)[C@@H](CCCNC(=N)N)NC1=O
B7: cyclo(-Ile-^DArg-Agp-Trp-^DPro-Thr-) (peptide)
peptide: cyclo(I[dR][Agp]W[dP]T)
SMILES: CC[C@H](C)[C@@H]1NC(=O)[C@H]([C@@H](C)O)NC(=O)[C@H]2CCCN2C(=O)[C@H](Cc2c[nH]c3ccccc23)NC(=O)[C@H](CNC(=N)N)NC(=O)[C@@H](CCCNC(=N)N)NC1=O
B8: cyclo(-Ile-^DArg-Arg-1Nal-^DPro-Thr-) (peptide)
peptide: cyclo(I[dR]R[1Nal][dP]T)
SMILES: CC[C@H](C)[C@@H]1NC(=O)[C@H]([C@@H](C)O)NC(=O)[C@H]2CCCN2C(=O)[C@H](Cc2cccc3ccccc23)NC(=O)[C@H](CCCNC(=N)N)NC(=O)[C@@H](CCCNC(=N)N)NC1=O
B9: cyclo(-Thr-^DArg-Trp-Arg-^DPro-Thr-) (peptide)
peptide: cyclo(T[dR]WR[dP]T)
SMILES: C[C@@H](O)[C@@H]1NC(=O)[C@H]([C@@H](C)O)NC(=O)[C@H]2CCCN2C(=O)[C@H](CCCNC(=N)N)NC(=O)[C@H](Cc2c[nH]c3ccccc23)NC(=O)[C@@H](CCCNC(=N)N)NC1=O
B10: cyclo(-Ile-^DArg-Arg-Ile-^DPro-Thr-) (peptide)
peptide: cyclo(I[dR]RI[dP]T)
SMILES: CC[C@H](C)[C@@H]1NC(=O)[C@H]([C@@H](C)O)NC(=O)[C@H]2CCCN2C(=O)[C@H]([C@@H](C)CC)NC(=O)[C@H](CCCNC(=N)N)NC(=O)[C@@H](CCCNC(=N)N)NC1=O
B11: cyclo(-Ile-^DHis-Arg-Trp-^DPro-Thr-) (peptide)
peptide: cyclo(I[dH]RW[dP]T)
SMILES: CC[C@H](C)[C@@H]1NC(=O)[C@H]([C@@H](C)O)NC(=O)[C@H]2CCCN2C(=O)[C@H](Cc2c[nH]c3ccccc23)NC(=O)[C@H](CCCNC(=N)N)NC(=O)[C@@H](Cc2c[nH]cn2)NC1=O
B12: cyclo(-1Nal-^DArg-Arg-Trp-^DPro-Thr-) (peptide)
peptide: cyclo([1Nal][dR]RW[dP]T)
SMILES: C[C@@H](O)[C@@H]1NC(=O)[C@H]2CCCN2C(=O)[C@H](Cc2c[nH]c3ccccc23)NC(=O)[C@H](CCCNC(=N)N)NC(=O)[C@@H](CCCNC(=N)N)NC(=O)[C@H](Cc2cccc3ccccc23)NC1=O
B13: cyclo(-Ile-^DArg-Arg-Trp-^DPro-Pro((3S)OH)-) (peptide)
peptide: cyclo(I[dR]RW[dP][Pro(3S-OH)])
SMILES: CC[C@H](C)[C@@H]1NC(=O)[C@@H]2[C@@H](O)CCN2C(=O)[C@H]2CCCN2C(=O)[C@H](Cc2c[nH]c3ccccc23)NC(=O)[C@H](CCCNC(=N)N)NC(=O)[C@@H](CCCNC(=N)N)NC1=O
B14: cyclo(-Ile-^DArg-Arg-Trp-^DPro-Ser-) (peptide)
peptide: cyclo(I[dR]RW[dP]S)
SMILES: CC[C@H](C)[C@@H]1NC(=O)[C@H](CO)NC(=O)[C@H]2CCCN2C(=O)[C@H](Cc2c[nH]c3ccccc23)NC(=O)[C@H](CCCNC(=N)N)NC(=O)[C@@H](CCCNC(=N)N)NC1=O
B15: cyclo(-Ile-^DCit-Arg-Trp-^DPro-Thr-) (peptide)
peptide: cyclo(I[dCit]RW[dP]T)
SMILES: CC[C@H](C)[C@@H]1NC(=O)[C@H]([C@@H](C)O)NC(=O)[C@H]2CCCN2C(=O)[C@H](Cc2c[nH]c3ccccc23)NC(=O)[C@H](CCCNC(=N)N)NC(=O)[C@@H](CCCNC(N)=O)NC1=O
B16: cyclo(-Ile-^DArg-Trp-Arg-^DPro-Thr-) (peptide)
peptide: cyclo(I[dR]WR[dP]T)
SMILES: CC[C@H](C)[C@@H]1NC(=O)[C@H]([C@@H](C)O)NC(=O)[C@H]2CCCN2C(=O)[C@H](CCCNC(=N)N)NC(=O)[C@H](Cc2c[nH]c3ccccc23)NC(=O)[C@@H](CCCNC(=N)N)NC1=O
B17: cyclo(-Ile-^DLys-Arg-Trp-^DPro-Thr-) (peptide)
peptide: cyclo(I[dK]RW[dP]T)
SMILES: CC[C@H](C)[C@@H]1NC(=O)[C@H]([C@@H](C)O)NC(=O)[C@H]2CCCN2C(=O)[C@H](Cc2c[nH]c3ccccc23)NC(=O)[C@H](CCCNC(=N)N)NC(=O)[C@@H](CCCCN)NC1=O
B18: cyclo(-Trp-^DPhe-Trp-Arg-^DPro((4S)NH2)-Tic-) (peptide)
peptide: cyclo(W[dF]WR[dPro(4S-NH2)][Tic])
SMILES: N=C(N)NCCC[C@@H]1NC(=O)[C@H](Cc2c[nH]c3ccccc23)NC(=O)[C@@H](Cc2ccccc2)NC(=O)[C@H](Cc2c[nH]c3ccccc23)NC(=O)[C@@H]2Cc3ccccc3CN2C(=O)[C@H]2C[C@H](N)CN2C1=O

Target: chemokine receptor CXCR7 (UniProt P25106 1-362, limits assumed)
Test: cell-based or functional assay

chemokine receptor CXCR7, sequence (P25106 whole entry): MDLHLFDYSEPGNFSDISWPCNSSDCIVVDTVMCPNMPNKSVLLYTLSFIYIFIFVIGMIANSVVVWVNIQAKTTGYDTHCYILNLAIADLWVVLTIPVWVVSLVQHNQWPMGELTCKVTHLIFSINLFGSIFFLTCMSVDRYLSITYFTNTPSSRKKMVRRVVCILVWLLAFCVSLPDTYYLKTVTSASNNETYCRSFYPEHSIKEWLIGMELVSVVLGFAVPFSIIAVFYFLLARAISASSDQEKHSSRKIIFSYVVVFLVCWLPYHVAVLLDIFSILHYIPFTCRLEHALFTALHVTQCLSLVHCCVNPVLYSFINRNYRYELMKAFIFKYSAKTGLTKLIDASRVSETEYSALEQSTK

Binder	β-Arrestin EC50
B1	0.4 nM
B2	83.7 nM
B3	6.1 nM
B4	22.3 nM
B5	538 nM
B6	6.7 nM
B7	90.5 nM
B8	17.9 nM
B9	17.2 nM
B10	79.7 nM
B11	546 nM
B12	28.5 nM
cyclo(I[dR]RW[dPip′]T) [cyclo(-Ile-^DArg-Arg-Trp-^DPip-Thr-)]	0.1 nM
B13	123 nM
B14	12.8 nM
B15	472 nM
B16	62.5 nM
B17	86.7 nM
B18	17.5 nM
